Assay results taken from patent US20210198349A1 (NEW YORK UNIVERSITY, published 2021).

T1: Tau 407-421 peptide (Truncated Asp421 Epitope of Tau)
T1 construct: Immobilized in the ELISA, analyte in the Biacore analysis
T1 peptide: HLSNVSSTGSIDMVD

T2: Tau 407-423 peptide (non-truncated Asp421 epitope)
T2 construct: Immobilized in the ELISA, analyte in the Biacore analysis
T2 peptide: HLSNVSSTGSIDMVDSP

B1: Antibody 5G2A3 (antibody, V domains shown)
VH: EVKLVESGGGLVKPGGSLTLSCAASGFTFSSYAMSWVRQTPEKSLEWVASISSGGNTFYPDTVKGRFTISRDNARNILYLQMSGLRSEDTAIYYCARRGDPNMITTLFGYWGQGTLVTISA
VL: DVLMTQTPLSLPVSLGDQASISCRSSQSILHRNGNTYLDWFLLKPGQSPKLLIYKVSNRFSGVPDRFSGSGSGTDFTLKISRVEAEDLGVYYCFQGSHVPWTFGGGTKLEIK
notes: Hybridoma-derived monoclonal antibody; also called 5G2A3/5G2G6
B2: Antibody 1G10D2 (antibody, V domains shown)
VH: EVKLVESGGDLVTPGGSLKVSCAASGLTFSDSAMSWVRLTPEKRLEWVASISTGGATYYPDGLKGRFTISRDDARNILFLQMNSLRSEDTAMYYCTRRGVSSGNLFTYWGQGTLVTVSA
VL: DVLMTQTPLSLPVSLGDQASISCRSSQSILNSNGNTYLEWYLQKPGQSPKLLIYKVSNRFSGVPDRFSGSGSGTDFTLKISRVEAEDLGVYYCFQGSHVPWTFGGGTKLEIK
B3: Antibody 5B3C11 (antibody, V domains shown)
VH: EVQLVESGGGLVKPGGSLKLSCAASGFTFSNYALSWVRQTPEKRLEWVASISSGGNTYYPDSVKGRFTISRDNARNILYLQMSSLRSEDTAMFYCTSRGDTTLITTLFTYWGQGTLVTVSA
VL: DVLMTQTPLSLPVSLGDQASISCRSNQSILHSNGNTYLDWYLQKPGQSPKLLIYKVSNRFSGVPDRFSGSGSGTDFTLRISRVEAEDLGVYYCFQGSHIPWTFGGGTKLEIK
notes: Tested as hybridoma culture supernatant
B4: Antibody 1G11A10 (antibody, V domains shown)
VH: EVKLVESGGGLMKPGGSLKLSCAASGFTFSSYAMSWVRQSPEKRLEWVASISSGGQTYSPDSVKGRFTISRDNARNILYLQMRNLRSEDTAMYYCASRGDPTMTATLFVYWGQGTLVTVS
VL: DVLMTQTPLSLPVSLGDQASISCRSSQSIINSNGNTYLEWYLQKPGQSPKLLIYKVSNRFSGVPDRFSGSGSGTDFTLKISRVETEDLGIYYCFQGSHVPWTFGGGTKLEIK
notes: Hybridoma-derived monoclonal antibody

Columns and labels:
[1] = molecular target: T1, Tau 407-421 peptide (Truncated Asp421 …); assay: Biacore (SPR), peptide as analyte
[2] = molecular target: T2, Tau 407-423 peptide (non-truncated …); assay: Biacore (SPR), peptide as analyte
[3] = molecular target: T2, Tau 407-423 peptide (non-truncated …); assay: ELISA, immobilized peptide
Description: (§1) The data thus confirms the ability of Antibodies 1G11A10, 5G2A3 and 5G2G6 to immunospecifically bind to the Truncated Asp421 Epitope of Tau.

[4] = molecular target: T1, Tau 407-421 peptide (Truncated Asp421 …); assay: ELISA
Description: as §1

[5] = molecular target: T2, Tau 407-423 peptide (non-truncated …); assay: Biacore, peptide as analyte

Binder	Kd [1] [nM]	Kd [2] [nM]	binding result [3]	binding result [4]	binding result [5]
B1	7.46	5070	–	–	–
B2	–	–	no binding	binds	–
B3	–	–	no binding	–	–
B4	1070	–	–	–	no binding
